From IntAct's records for PubMed 16648845

B1: Serine/threonine-protein kinase Nek2 (Homo sapiens), P51955 (parent)
chain: MPSRAEDYEVLYTIGTGSYGRCQKIRRKSDGKILVWKELDYGSMTEAEKQMLVSEVNLLRELKHPNIVRYYDRIIDRTNTTLYIVMEYCEGGDLASVITKGTKERQYLDEEFVLRVMTQLTLALKECHRRSDGGHTVLHRDLKPANVFLDGKQNVKLGDFGLARILNHDTSFAKTFVGTPYYMSPEQMNRMSYNEKSDIWSLGCLLYELCALMPPFTAFSQKELAGKIREGKFRRIPYRYSDELNEIITRMLNLKDYHRPSVEEILENPLIADLVADEQRRNLERRGRQLGEPEKSQDSSPVLSELKLKEIQLQERERALKAREERLEQKEQELCVRERLAEDKLARAENLLKNYSLLKERKFLSLASNPELLNLPSSVIKKKVHFSGESKENIMRSENSESQLTSKSKCKDLKKRLHAAQLRAQALSDIEKNYQLKSRQILGMR

Variants of: B1
Details: with cdc27_human CDC27, P30260
Chain of cdc27_human CDC27, P30260 (P30260 whole entry): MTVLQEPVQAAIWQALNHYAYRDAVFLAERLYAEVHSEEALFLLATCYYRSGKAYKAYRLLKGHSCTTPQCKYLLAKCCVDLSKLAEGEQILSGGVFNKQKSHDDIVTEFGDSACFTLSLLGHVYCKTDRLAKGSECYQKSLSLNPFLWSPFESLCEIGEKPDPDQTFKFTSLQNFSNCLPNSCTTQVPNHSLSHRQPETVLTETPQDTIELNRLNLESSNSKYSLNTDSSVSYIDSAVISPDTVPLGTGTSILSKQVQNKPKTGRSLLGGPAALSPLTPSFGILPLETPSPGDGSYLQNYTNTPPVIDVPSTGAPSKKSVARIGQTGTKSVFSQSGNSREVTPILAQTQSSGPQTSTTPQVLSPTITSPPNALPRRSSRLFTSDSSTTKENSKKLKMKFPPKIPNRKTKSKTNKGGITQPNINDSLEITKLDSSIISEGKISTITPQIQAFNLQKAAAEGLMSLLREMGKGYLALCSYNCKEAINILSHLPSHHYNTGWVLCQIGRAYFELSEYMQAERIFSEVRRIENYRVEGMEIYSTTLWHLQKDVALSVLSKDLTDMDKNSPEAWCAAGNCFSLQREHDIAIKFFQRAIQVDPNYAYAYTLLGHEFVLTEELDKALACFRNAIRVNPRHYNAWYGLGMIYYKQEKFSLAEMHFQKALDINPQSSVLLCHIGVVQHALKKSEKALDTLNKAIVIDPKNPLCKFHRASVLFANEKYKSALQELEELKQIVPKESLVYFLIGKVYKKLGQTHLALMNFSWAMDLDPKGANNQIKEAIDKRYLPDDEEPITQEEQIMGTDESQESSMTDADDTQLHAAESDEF

Row | Variant | effect of a mutation on the interaction
1 | K391A;E392A;N393A;N399A | decreasing interaction
